Test results taken from publication PMC2171568 (The Journal of Cell Biology, 2005).
Non-standard residues stand in square brackets, D forms with d. No end group written: not given here. pS = N[C@@H](COP(=O)(O)O)C(=O)O

How the values were obtained:
[1] = target: T1, 14-3-3 Saccharomyces cerevisiae isoform BMH2, His-tagged (Saccharomyces cerevisiae, UniProt P34730 1-273); assay: pull-down
T1 sequence (looked up): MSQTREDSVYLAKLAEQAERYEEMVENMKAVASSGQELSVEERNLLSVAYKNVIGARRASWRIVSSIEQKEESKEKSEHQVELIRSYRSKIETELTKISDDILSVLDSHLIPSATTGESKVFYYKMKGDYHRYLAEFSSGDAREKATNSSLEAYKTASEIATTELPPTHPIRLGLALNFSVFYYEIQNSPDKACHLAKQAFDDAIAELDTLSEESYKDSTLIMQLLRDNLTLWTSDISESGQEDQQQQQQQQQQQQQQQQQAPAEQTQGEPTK

[2] = target: T2, 14-3-3 Saccharomyces cerevisiae isoform BMH1, His-tagged (Saccharomyces cerevisiae, UniProt P29311 1-267); assay: pull-down
T2 sequence (looked up): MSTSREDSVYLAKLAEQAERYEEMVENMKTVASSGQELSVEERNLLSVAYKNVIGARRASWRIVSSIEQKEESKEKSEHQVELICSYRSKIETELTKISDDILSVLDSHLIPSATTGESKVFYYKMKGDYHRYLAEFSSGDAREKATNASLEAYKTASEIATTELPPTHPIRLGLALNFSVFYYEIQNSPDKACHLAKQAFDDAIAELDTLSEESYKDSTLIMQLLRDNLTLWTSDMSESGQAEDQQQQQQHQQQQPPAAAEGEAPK

binding result [1]: binds
binding result [2]: binds
Binder: ARAA[pS]APA [peptide ARAApSAPA]
